Biological target: T1, Bruno-EGFP (BrunoFL-EGFP) (UniProt O02374)
T1 sequence: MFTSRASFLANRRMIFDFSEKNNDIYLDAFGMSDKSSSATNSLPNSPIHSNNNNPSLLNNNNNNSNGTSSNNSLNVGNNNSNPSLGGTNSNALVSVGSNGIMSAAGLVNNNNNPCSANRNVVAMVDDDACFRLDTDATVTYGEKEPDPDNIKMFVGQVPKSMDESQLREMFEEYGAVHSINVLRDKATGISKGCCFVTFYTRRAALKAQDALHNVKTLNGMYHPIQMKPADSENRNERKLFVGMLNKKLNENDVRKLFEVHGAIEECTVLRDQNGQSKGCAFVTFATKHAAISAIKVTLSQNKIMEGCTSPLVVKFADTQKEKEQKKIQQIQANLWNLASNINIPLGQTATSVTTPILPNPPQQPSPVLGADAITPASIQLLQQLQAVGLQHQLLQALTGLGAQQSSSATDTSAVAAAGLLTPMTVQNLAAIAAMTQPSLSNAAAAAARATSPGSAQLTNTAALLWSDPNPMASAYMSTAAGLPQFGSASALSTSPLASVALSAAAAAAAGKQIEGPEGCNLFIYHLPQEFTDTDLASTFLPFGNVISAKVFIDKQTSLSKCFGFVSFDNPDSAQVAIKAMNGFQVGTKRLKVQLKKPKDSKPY
Assay: EMSA
Settings: EMSA: 50 nM RNA, 20 mM Tris-HCl pH 7.5, 150 mM NaCl, 2 mM MgCl2, 5% glycerol, 0.5 mM TCEP, 20 min at room temperature; 0.8% agarose 0.5x TBE gel at 4 C

Q: “GGGUGGAAAAUUCGCUUGCACAAAAUCAACGUUGCGGCUGAUUUAUUAUUGAUGUGCUCAAGCAAAUUCA [UUOES (UU67)]” was tested. Which binding did it give?
A: no binding

Q: For “GGGAGUGAAGCAUUUGCGCGAUUUUCGUCUUUCUGUUUCCGUUUGCAAAAAAGUUUAUAAAAUGCUUACACUCUGCUGCAGACACGCCAACCGGAAGUGCGCACUAAGCGCUUGUUUGUAGCACAGUGUAGAAUUCUGGCGUAAUUUACAGCUCUACUUUAAAGUCUUCUAGAUAGCUAUCUACUAUUUAUAAACUUAUUUAUUGUCUUGAAUGUAUGUUAAUUGUAUGUAUUGAUGGUGAUCACGUUUUUUUUGUCCUAUAACAAGCUGCAAUGUAAAAUCCAAAAAAAAAAUG [oskar292]”, which binding is on record?
A: binds

Q: With “GGGUGGAAAAUUCGCUUGCACAAAAUCAACGCCGCGGCUGAUUUAUUAUUGAUGUGCUCAAGCAAAUUCA [WTOES (WT67)]” as the sequence, how does the binding read?
A: no binding
